Values quoted from earlier work as cited in patent publication US20240424090A1, “COMPOSITIONS AND METHODS FOR USE IN IMMUNOTHERAPY” (INSTITUT CURIE, priority 2021, published 2024).

What was measured:
FCGRIIIA = FCGRIIIA (Homo sapiens, UniProt P08637)
FCGRIIA = molecular target: T1, FCGRIIA (Homo sapiens, UniProt P12318)
T1 sequence (P12318 34-317): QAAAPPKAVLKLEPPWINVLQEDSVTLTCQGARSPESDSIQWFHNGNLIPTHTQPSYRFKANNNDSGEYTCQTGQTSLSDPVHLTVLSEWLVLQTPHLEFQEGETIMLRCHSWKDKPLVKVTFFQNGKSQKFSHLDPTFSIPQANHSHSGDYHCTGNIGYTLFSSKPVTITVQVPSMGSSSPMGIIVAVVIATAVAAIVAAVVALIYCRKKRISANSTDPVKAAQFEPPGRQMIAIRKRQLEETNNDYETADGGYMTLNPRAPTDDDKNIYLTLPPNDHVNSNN

FCGRIIIA, sequence (P08637 17-254): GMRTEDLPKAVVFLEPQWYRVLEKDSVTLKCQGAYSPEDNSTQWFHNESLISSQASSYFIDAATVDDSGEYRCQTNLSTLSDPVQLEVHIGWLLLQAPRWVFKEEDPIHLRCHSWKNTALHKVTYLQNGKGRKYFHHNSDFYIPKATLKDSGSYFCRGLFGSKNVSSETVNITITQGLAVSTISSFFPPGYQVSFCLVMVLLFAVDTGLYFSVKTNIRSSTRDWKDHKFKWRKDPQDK

In the case of Tremelimumab: IgG2 anti-CTLA-4 antibody, the “binding to FCGRIIIA” value (FCGRIIIA) is listed as “not” and the “binding to FCGRIIA” value (FCGRIIA) is listed as “binds well”.
